Test results as given in paper PMC13163806.

What was measured:
eIF3F = test: EMSA; conditions: 0.4-2.6 uM protein; fluorescein-12-UTP incorporated about every 20-25 nt; 150 mM NaCl, 20 mM HEPES (pH not stated), 1.5 mM MgCl2, 0.1 mM EDTA, 0.75 mM DTT, 10% glycerol; 2.3 nM labelled RNA; on ice 20 min; 1% native agarose gel
PDCD4 = test: EMSA; conditions: 0.2-1.2 uM protein; fluorescein-12-UTP incorporated about every 20-25 nt; 150 mM NaCl, 20 mM HEPES (pH not stated), 1.5 mM MgCl2, 0.1 mM EDTA, 0.75 mM DTT, 10% glycerol; 2.3 nM labelled RNA; on ice 20 min; 1% native agarose gel

## Bcl-xL IRES RNA
eIF3F
  Kd: 800 nM
PDCD4
  Kd: 400 nM
